# Measurements taken from patent US20140141456.
# Legend:
# [1] = target: rIGFBP-3 (gift of D. Powell), P17936
# [2] = target: C-terminally c-myc tagged rIGFBP-5 (human IGFBP-5 with myc epitope and His6, expressed in mammalian cells), P24593
# [3] = target: rIGFBP-5 (gift of D. Andress), P24593
# Sequence of rIGFBP-5 (gift of D. Andress), P24593 (P24593 21-272): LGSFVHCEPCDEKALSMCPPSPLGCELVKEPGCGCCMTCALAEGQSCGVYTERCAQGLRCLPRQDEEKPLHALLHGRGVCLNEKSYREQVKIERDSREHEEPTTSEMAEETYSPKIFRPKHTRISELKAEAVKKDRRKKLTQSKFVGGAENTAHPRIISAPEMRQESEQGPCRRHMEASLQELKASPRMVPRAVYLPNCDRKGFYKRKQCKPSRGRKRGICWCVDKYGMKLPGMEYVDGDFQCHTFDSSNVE
# Sequence of rIGFBP-3 (gift of D. Powell), P17936 (P17936 28-291): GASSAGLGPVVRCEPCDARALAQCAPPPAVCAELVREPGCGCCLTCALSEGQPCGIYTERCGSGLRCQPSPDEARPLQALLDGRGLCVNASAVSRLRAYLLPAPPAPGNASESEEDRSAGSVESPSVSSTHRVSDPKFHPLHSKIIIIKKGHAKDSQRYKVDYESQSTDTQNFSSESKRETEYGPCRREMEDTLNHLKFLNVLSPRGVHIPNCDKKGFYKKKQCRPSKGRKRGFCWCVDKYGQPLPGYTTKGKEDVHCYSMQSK
# Sequence of C-terminally c-myc tagged rIGFBP-5 (human IGFBP-5 with myc epitope and His6, expressed in mammalian cells), P24593 (P24593 other isoform, or with tags, fused parts or gaps): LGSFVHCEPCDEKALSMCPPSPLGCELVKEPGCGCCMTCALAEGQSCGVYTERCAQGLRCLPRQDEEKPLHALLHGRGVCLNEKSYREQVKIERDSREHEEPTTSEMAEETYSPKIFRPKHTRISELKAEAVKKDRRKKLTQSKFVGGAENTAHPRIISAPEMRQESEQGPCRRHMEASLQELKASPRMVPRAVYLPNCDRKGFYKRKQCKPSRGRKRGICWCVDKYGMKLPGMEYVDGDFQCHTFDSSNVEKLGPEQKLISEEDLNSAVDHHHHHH
protein,measurement,setting,value
"PAPP-A2 (recombinant, in medium from 293T cells transfected with cDNA encoding PAPP-A2, pPA2; also purified PAPP-A2) (protein) SPPEESNQNGGEGSYREAETFNSQVGLPILYFSGRRERLLLRPEVLAEIPREAFTVEAWVKPEGGQNNPAIIAGVFDNCSHTVSDKGWALGIRSGKDKGKRDARFFFSLCTDRVKKATILISHSRYQPGTWTHVAATYDGRHMALYVDGTQVASSLDQSGPLNSPFMASCRSLLLGGDSSEDGHYFRGHLGTLVFWSTALPQSHFQHSSQHSSGEEEATDLVLTASFEPVNTEWVPFRDEKYPRLEVLQGFEPEPEILSPLQPPLCGQTVCDNVELISQYNGYWPLRGEKVIRYQVVNICDDEGLNPIVSEEQIRLQHEALNEAFSRYNISWQLSVHQVHNSTLRHRVVLVNCEPSKIGNDHCDPECEHPLTGYDGGDCRLQGRCYSWNRRDGLCHVECNNMLNDFDDGDCCDPQVADVRKTCFDPDSPKRAYMSVKELKEALQLNSTHFLNIYFASSVREDLAGAATWPWDKDAVTHLGGIVLSPAYYGMPGHTDTMIHEVGHVLGLYHVFKGVSERESCNDPCKETVPSMETGDLCADTAPTPKSELCREPEPTSDTCGFTRFPGAPFTNYMSYTDDNCTDNFTPNQVARMHCYLDLVYQQWTESRKPTPIPIPPMVIGQTNKSLTIHWLPPISGVVYDRASGSLCGACTEDGTFRQYVHTASSRRVCDSSGYWTPEEAVGPPDVDQPCEPSLQAWSPEVHLYHMNMTVPCPTEGCSLELLFQHPVQADTLTLWVTSFFMESSQVLFDTEILLENKESVHLGPLDTFCDIPLTIKLHVDGKVSGVKVYTFDERIEIDAALLTSQPHSPLCSGCRPVRYQVLRDPPFASGLPVVVTHSHRKFTDVEVTPGQMYQYQVLAEAGGELGEASPPLNHIHGAPYCGDGKVSERLGEECDDGDLVSGDGCSKVCELEEGFNCVGEPSLCYMYEGDGICEPFERKTSIVDCGIYTPKGYLDQWATRAYSSHEDKKKCPVSLVTGEPHSLICTSYHPDLPNHRPLTGWFPCVASENETQDDRSEQPEGSLKKEDEVWLKVCFNRPGEARAIFIFLTTDGLVPGEHQQPTVTLYLTDVRGSNHSLGTYGLSCQHNPLIINVTHHQNVLFHHTTSVLLNFSSPRVGISAVALRTSSRIGLSAPSNCISEDEGQNHQGQSCIHRPCGKQDSCPSLLLDHADVVNCTSIGPGLMKCAITCQRGFALQASSGQYIRPMQKEILLTCSSGHWDQNVSCLPVDCGVPDPSLVNYANFSCSEGTKFLKRCSISCVPPAKLQGLSPWLTCLEDGLWSLPEVYCKLECDAPPIILNANLLLPHCLQDNHDVGTICKYECKPGYYVAESAEGKVRNKLLKIQCLEGGIWEQGSCIPVVCEPPPPVFEGMYECTNGFSLDSQCVLNCNQEREKLPILCTKEGLWTQEFKLCENLQGECPPPPSELNSVEYKCEQGYGIGAVCSPLCVIPPSDPVMLPENITADTLEHWMEPVKVQSIVCTGRRQWHPDPVLVHCIQSCEPFQADGWCDTINNRAYCHYDGGDCCSSTLSSKKVIPFAADCDLDECTCRDPKAEENQ",activity assessed by ligand blotting using radiolabeled IGF-II,[1],IGFBP-3 was partially degraded
same,Proteolytic activity was assessed by Western blotting using anti-c-myc,[2],"In the absence of inhibitors, wild-type PAPP-A2 degraded all rIGFBP-5 (lane 3)"
same,activity assessed by ligand blotting using radiolabeled IGF-II,[3],IGFBP-5 showed complete cleavage
